Values belong to the binder of their own block, whether it stands above or below them.
Assays:
C3b [1] = target: T1, C3b (human, UniProt P01024 23-667; P01024 749-1663); assay: BLI (OctetRed96), biotinylated C3b on streptavidin (SAX) sensors, CR1a in solution; the same table prints KD Error (%) 0.4186, Full R^2 0.8731, '30 µgml' under Data Location
T1 construct: In the cofactor assays it was plain 'pure C3b protein'; also called pure C3b protein; biotinylated C3b protein
Protocol: (§1) The affinity of CR1a for C3b protein was measured using OctetRed96 System (ForteBio, Pall Corp., USA). Biotinylated C3b protein was diluted in 0.2% PBST to final concentration of 0.4 μg/mL and loaded onto High Precision Streptavidin (SAX) Biosensors (ForteBio, Pall Corp., USA) for 600 s, previously hydrated with the same buffer for 20 min. C3b-loaded sensors were then washed with 0.2% PBST for 150 s (baseline) and dipped into wells containing CR1a in different concentrations ranging from 30.0 μg/mL to 2.6 μg/mL for 600 s (association) followed by wash with 0.2% PBST for 600 s (dissociation). Association and dissociation profiles were recorded and analysed with ForeBio Data Analysis v9 (ForteBio, Pall Corp., USA). The negative control i.e. 0.2% PBST containing well was used in parallel to subtract binding resulting from nonspecific interactions with the sensors. Experiments were performed using the kinetics mode, at 25° C. and sample plates were pre-agitated for 3 min. The binding profiles were globally fitted to 1:1 (one analyte in solution to one binding site on the surface). […] Binding affinities were also determined for native soluble C3b-binding complement regulators Factor H (FH) and FHL-1 to immobilised C3b.

C3b [2] = target: T1, C3b; assay: BLI (OctetRed96), immobilised biotinylated C3b, FHL-1 in solution
Protocol: as §1

C3b [3] = target: T1, C3b; assay: BLI (OctetRed96), biotinylated C3b on streptavidin (SAX) sensors, FHL-1 in solution; the same table prints KD Error (%) 3.1325, Full R^2 0.9550, '278 µgml' under Data Location, FHL-1 ~50kDa
Protocol: as §1

C3b [4] = target: T1, C3b; assay: BLI (OctetRed96), biotinylated C3b on streptavidin (SAX) sensors, FH in solution; the same table prints KD Error (%) 3.0192, Full R^2 0.9770, '167 µgml' under Data Location, FH ~155kDa
Protocol: as §1

C3b [5] = target: T1, C3b; assay: BLI (OctetRed96), immobilised biotinylated C3b, FH in solution
Protocol: as §1

T1 sequence (P01024 23-667 limits assumed, chain 1 of 2): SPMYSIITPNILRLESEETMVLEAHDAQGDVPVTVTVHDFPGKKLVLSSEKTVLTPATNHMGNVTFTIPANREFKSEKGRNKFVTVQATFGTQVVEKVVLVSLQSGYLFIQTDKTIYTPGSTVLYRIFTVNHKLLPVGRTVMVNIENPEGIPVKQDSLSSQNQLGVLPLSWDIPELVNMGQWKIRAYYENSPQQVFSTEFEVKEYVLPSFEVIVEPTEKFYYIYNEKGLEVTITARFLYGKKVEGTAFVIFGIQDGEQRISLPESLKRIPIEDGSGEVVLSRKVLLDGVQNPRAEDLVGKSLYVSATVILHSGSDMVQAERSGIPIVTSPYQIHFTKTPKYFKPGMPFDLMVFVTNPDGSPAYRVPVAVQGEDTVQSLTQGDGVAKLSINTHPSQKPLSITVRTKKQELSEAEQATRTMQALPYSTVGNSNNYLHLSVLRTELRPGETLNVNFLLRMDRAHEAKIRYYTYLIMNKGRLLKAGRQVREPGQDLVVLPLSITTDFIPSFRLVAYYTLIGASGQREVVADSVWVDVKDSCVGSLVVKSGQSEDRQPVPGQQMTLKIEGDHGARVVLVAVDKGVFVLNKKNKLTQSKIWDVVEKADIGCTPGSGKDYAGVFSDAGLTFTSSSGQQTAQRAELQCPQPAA
T1 sequence (P01024 749-1663 limits assumed, chain 2 of 2): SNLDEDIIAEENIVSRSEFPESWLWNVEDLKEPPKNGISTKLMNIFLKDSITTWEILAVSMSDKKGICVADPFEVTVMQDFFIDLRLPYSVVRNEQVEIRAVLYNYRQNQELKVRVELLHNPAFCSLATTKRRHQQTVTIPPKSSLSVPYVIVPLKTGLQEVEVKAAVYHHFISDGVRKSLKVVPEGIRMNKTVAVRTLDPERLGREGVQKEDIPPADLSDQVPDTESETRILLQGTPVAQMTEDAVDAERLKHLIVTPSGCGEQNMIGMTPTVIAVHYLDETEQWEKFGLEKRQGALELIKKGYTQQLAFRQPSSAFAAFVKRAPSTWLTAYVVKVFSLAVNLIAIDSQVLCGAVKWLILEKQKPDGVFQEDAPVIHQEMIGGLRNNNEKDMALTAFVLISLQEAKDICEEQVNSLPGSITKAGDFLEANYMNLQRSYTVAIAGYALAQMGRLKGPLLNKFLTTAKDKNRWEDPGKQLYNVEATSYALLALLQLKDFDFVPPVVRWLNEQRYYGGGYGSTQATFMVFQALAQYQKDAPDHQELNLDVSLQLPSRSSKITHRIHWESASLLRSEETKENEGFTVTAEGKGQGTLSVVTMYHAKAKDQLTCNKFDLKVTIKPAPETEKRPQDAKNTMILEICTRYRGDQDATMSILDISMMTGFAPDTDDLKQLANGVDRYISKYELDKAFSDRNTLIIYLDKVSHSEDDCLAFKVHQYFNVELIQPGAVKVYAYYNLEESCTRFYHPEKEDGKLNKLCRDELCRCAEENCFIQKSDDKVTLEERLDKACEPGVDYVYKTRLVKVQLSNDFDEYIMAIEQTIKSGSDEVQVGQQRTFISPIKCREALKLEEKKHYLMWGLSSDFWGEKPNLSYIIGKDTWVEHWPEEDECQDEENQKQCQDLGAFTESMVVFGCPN

Kd (C3b [1]): 21 nM
B1: CR1a (CCPs 8-10 of human Complement Receptor 1, secreted from HEK293 cells) (receptor)
chain: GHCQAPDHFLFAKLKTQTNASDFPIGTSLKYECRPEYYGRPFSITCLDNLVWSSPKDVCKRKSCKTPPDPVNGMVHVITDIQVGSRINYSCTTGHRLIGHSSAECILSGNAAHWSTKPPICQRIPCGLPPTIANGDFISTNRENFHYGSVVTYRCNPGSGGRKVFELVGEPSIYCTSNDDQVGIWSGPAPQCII
notes: also called Human Complement Receptor 1 CCPs 8-10; recombinant CR1a protein

Kd (C3b [2]): 1200 nM
Kd (C3b [3]): 1170 nM
B2: Complement Factor H isoform FHL-1 (other)
chain: EDCNELPPRRNTEILTGSWSDQTYPEGTQAIYKCRPGYRSLGNVIMVCRKGEWVALNPLRKCQKRPCGHPGDTPFGTFTLTGGNVFEYGVKAVYTCNEGYQLLGEINYRECDTDGWTNDIPICEVVKCLPVTAPENGKIVSSAMEPDREYHFGQAVRFVCNSGYKIEGDEEMHCSDDGFWSKEKPKCVEISCKSPDVINGSPISQKIIYKENERFQYKCNMGYEYSERGDAVCTESGWRPLPSCEEKSCDNPYIPNGDYSPLRIKHRTGDEITYQCRNGFYPATRGNTAKCTSTGWIPAPRCTLKPCDYPDIKHGGLYHENMRRPYFPVAVGKYYSYYCDEHFETPSGSYWDHIHCTQDGWSPAVPCLRKCYFPYLENGYNQNYGRKFVQGKSIDVACHPGYALPKAQTTVTCMENGWSPTPRCIRVSFTL
notes: also called factor H-like protein 1

Kd (C3b [4]): 583 nM
Kd (C3b [5]): 580 nM
B3: Complement Factor H (FH) (other)
chain: EDCNELPPRRNTEILTGSWSDQTYPEGTQAIYKCRPGYRSLGNVIMVCRKGEWVALNPLRKCQKRPCGHPGDTPFGTFTLTGGNVFEYGVKAVYTCNEGYQLLGEINYRECDTDGWTNDIPICEVVKCLPVTAPENGKIVSSAMEPDREYHFGQAVRFVCNSGYKIEGDEEMHCSDDGFWSKEKPKCVEISCKSPDVINGSPISQKIIYKENERFQYKCNMGYEYSERGDAVCTESGWRPLPSCEEKSCDNPYIPNGDYSPLRIKHRTGDEITYQCRNGFYPATRGNTAKCTSTGWIPAPRCTLKPCDYPDIKHGGLYHENMRRPYFPVAVGKYYSYYCDEHFETPSGSYWDHIHCTQDGWSPAVPCLRKCYFPYLENGYNQNYGRKFVQGKSIDVACHPGYALPKAQTTVTCMENGWSPTPRCIRVKTCSKSSIDIENGFISESQYTYALKEKAKYQCKLGYVTADGETSGSITCGKDGWSAQPTCIKSCDIPVFMNARTKNDFTWFKLNDTLDYECHDGYESNTGSTTGSIVCGYNGWSDLPICYERECELPKIDVHLVPDRKKDQYKVGEVLKFSCKPGFTIVGPNSVQCYHFGLSPDLPICKEQVQSCGPPPELLNGNVKEKTKEEYGHSEVVEYYCNPRFLMKGPNKIQCVDGEWTTLPVCIVEESTCGDIPELEHGWAQLSSPPYYYGDSVEFNCSESFTMIGHRSITCIHGVWTQLPQCVAIDKLKKCKSSNLIILEEHLKNKKEFDHNSNIRYRCRGKEGWIHTVCINGRWDPEVNCSMAQIQLCPPPPQIPNSHNMTTTLNYRDGEKVSVLCQENYLIQEGEEITCKDGRWQSIPLCVEKIPCSQPPQIEHGTINSSRSSQESYAHGTKLSYTCEGGFRISEENETTCYMGKWSSPPQCEGLPCKSPPEISHGVVAHMSDSYQYGEEVTYKCFEGFGIDGPAIAKCLGEKWSHPPSCIKTDCLSLPSFENAIPMGEKKDVYKAGEQVTYTCATYYKMDGASNVTCINSRWTGRPTCRDTSCVNPPTVQNAYIVSRQMSKYPSGERVRYQCRSPYEMFGDEEVMCLNGNWTEPPQCKDSTGKCGPPPPIDNGDITSFPLSVYAPASSVEYQCQNLYQLEGNKRITCRNGQWSEPPKCLHPCVISREIMENYNIALRWTAKQKLYSRTGESVEFVCKRGYRLSSRSHTLRTTCWDGKLEYPTCAKR

Source: patent publication US20210145933A1 (COMPLEMENT THERAPEUTICS, published 2021)
